Data reported in paper PMC4664897, “Neurodegenerative disease-associated mutants of a human mitochondrial aminoacyl-tRNA synthetase present individual molecular signatures” (Scientific Reports, 2015).

Tests used:
[1] = biological target: the molecule itself; assay: SEC + other: SAXS; HPLC-SEC (Agilent Bio SEC-3, 15 °C) directly upstream of the SAXS cell; WT, Q184K and R263Q loaded at 7.4, 10 and 14 mg/ml; mobile phase 100 mM HEPES-Na pH 7.5, 250 mM NaCl, 5% glycerol, 1 mM TCEP; oligomer from Rg and Porod volume of each peak
[2] = biological target: the molecule itself; assay: dynamic light scattering; 2 mg/ml in 100 mM potassium phosphate pH 7.5, 50 mM KCl, 0.1 mM EDTA, 10 mM β-mercaptoethanol, 10% glycerol, 20 °C; hydrodynamic diameter

Protein	stoichiometry N [1]	stoichiometry N [2]
wild-type human mitochondrial aspartyl-tRNA synthetase (mt-AspRS) (enzyme, human mitochondrial aspartyl-tRNA synthetase (DARS2), residues 41-645; linker of 5 residues before the C-terminal 6-His tag; Homodimer; also called WT; WT mt-AspRS; not shown: His6, C-terminal, kept) IPEFSSFVVRTNTCGELRSSHLGQEVTLCGWIQYRRQNTFLVLRDFDGLVQVIIPQDESAASVKKILCEAPVESVVQVSGTVISRPAGQENPKMPTGEIEIKVKTAELLNACKKLPFEIKNFVKKTEALRLQYRYLDLRSFQMQYNLRLRSQMVMKMREYLCNLHGFVDIETPTLFKRTPGGAKEFLVPSREPGKFYSLPQSPQQFKQLLMVGGLDRYFQVARCYRDEGSRPDRQPEFTQIDIEMSFVDQTGIQSLIEGLLQYSWPNDKDPVVVPFPTMTFAEVLATYGTDKPDTRFGMKIIDISDVFRNTEIGFLQDALSKPHGTVKAICIPEGAKYLKRKDIESIRNFAADHFNQEILPVFLNANRNWNSPVANFIMESQRLELIRLMETQEEDVVLLTAGEHNKACSLLGKLRLECADLLETRGVVLRDPTLFSFLWVVDFPLFLPKEENPRELESAHHPFTAPHPSDIHLLYTEPKKARSQHYDLVLNGNEIGGGSIRIHNAELQRYILATLLKEDVKMLSHLLQALDYGAPPHGGIALGLDRLICLVTGSPSIRDVIAFPKSFRGHDLMSNTPDSVPPEELKPYHIRVSKPTDSKAERAHVMYLE	2	
human mt-AspRS mutant R58G (enzyme, human mitochondrial aspartyl-tRNA synthetase (DARS2), residues 41-645, LBSL patient mutation 172C>G (R58G); linker of 5 residues before the C-terminal 6-His tag; Mutation found in LBSL patients; not shown: His6, C-terminal, kept) IPEFSSFVVRTNTCGELGSSHLGQEVTLCGWIQYRRQNTFLVLRDFDGLVQVIIPQDESAASVKKILCEAPVESVVQVSGTVISRPAGQENPKMPTGEIEIKVKTAELLNACKKLPFEIKNFVKKTEALRLQYRYLDLRSFQMQYNLRLRSQMVMKMREYLCNLHGFVDIETPTLFKRTPGGAKEFLVPSREPGKFYSLPQSPQQFKQLLMVGGLDRYFQVARCYRDEGSRPDRQPEFTQIDIEMSFVDQTGIQSLIEGLLQYSWPNDKDPVVVPFPTMTFAEVLATYGTDKPDTRFGMKIIDISDVFRNTEIGFLQDALSKPHGTVKAICIPEGAKYLKRKDIESIRNFAADHFNQEILPVFLNANRNWNSPVANFIMESQRLELIRLMETQEEDVVLLTAGEHNKACSLLGKLRLECADLLETRGVVLRDPTLFSFLWVVDFPLFLPKEENPRELESAHHPFTAPHPSDIHLLYTEPKKARSQHYDLVLNGNEIGGGSIRIHNAELQRYILATLLKEDVKMLSHLLQALDYGAPPHGGIALGLDRLICLVTGSPSIRDVIAFPKSFRGHDLMSNTPDSVPPEELKPYHIRVSKPTDSKAERAHVMYLE		2
human mt-AspRS mutant T136S (enzyme, human mitochondrial aspartyl-tRNA synthetase (DARS2), residues 41-645, LBSL patient mutation 406A>T (T136S); linker of 5 residues before the C-terminal 6-His tag; Mutation found in LBSL patients; not shown: His6, C-terminal, kept) IPEFSSFVVRTNTCGELRSSHLGQEVTLCGWIQYRRQNTFLVLRDFDGLVQVIIPQDESAASVKKILCEAPVESVVQVSGTVISRPAGQENPKMPSGEIEIKVKTAELLNACKKLPFEIKNFVKKTEALRLQYRYLDLRSFQMQYNLRLRSQMVMKMREYLCNLHGFVDIETPTLFKRTPGGAKEFLVPSREPGKFYSLPQSPQQFKQLLMVGGLDRYFQVARCYRDEGSRPDRQPEFTQIDIEMSFVDQTGIQSLIEGLLQYSWPNDKDPVVVPFPTMTFAEVLATYGTDKPDTRFGMKIIDISDVFRNTEIGFLQDALSKPHGTVKAICIPEGAKYLKRKDIESIRNFAADHFNQEILPVFLNANRNWNSPVANFIMESQRLELIRLMETQEEDVVLLTAGEHNKACSLLGKLRLECADLLETRGVVLRDPTLFSFLWVVDFPLFLPKEENPRELESAHHPFTAPHPSDIHLLYTEPKKARSQHYDLVLNGNEIGGGSIRIHNAELQRYILATLLKEDVKMLSHLLQALDYGAPPHGGIALGLDRLICLVTGSPSIRDVIAFPKSFRGHDLMSNTPDSVPPEELKPYHIRVSKPTDSKAERAHVMYLE		2
human mt-AspRS mutant L613F (enzyme, human mitochondrial aspartyl-tRNA synthetase (DARS2), residues 41-645, LBSL patient mutation 1837C>T (L613F); linker of 5 residues before the C-terminal 6-His tag; Mutation found in LBSL patients; not shown: His6, C-terminal, kept) IPEFSSFVVRTNTCGELRSSHLGQEVTLCGWIQYRRQNTFLVLRDFDGLVQVIIPQDESAASVKKILCEAPVESVVQVSGTVISRPAGQENPKMPTGEIEIKVKTAELLNACKKLPFEIKNFVKKTEALRLQYRYLDLRSFQMQYNLRLRSQMVMKMREYLCNLHGFVDIETPTLFKRTPGGAKEFLVPSREPGKFYSLPQSPQQFKQLLMVGGLDRYFQVARCYRDEGSRPDRQPEFTQIDIEMSFVDQTGIQSLIEGLLQYSWPNDKDPVVVPFPTMTFAEVLATYGTDKPDTRFGMKIIDISDVFRNTEIGFLQDALSKPHGTVKAICIPEGAKYLKRKDIESIRNFAADHFNQEILPVFLNANRNWNSPVANFIMESQRLELIRLMETQEEDVVLLTAGEHNKACSLLGKLRLECADLLETRGVVLRDPTLFSFLWVVDFPLFLPKEENPRELESAHHPFTAPHPSDIHLLYTEPKKARSQHYDLVLNGNEIGGGSIRIHNAELQRYILATLLKEDVKMLSHLLQALDYGAPPHGGIALGLDRLICLVTGSPSIRDVIAFPKSFRGHDFMSNTPDSVPPEELKPYHIRVSKPTDSKAERAHVMYLE		2
human mt-AspRS mutant L626Q (enzyme, human mitochondrial aspartyl-tRNA synthetase (DARS2), residues 41-645, LBSL patient mutation 1876T>A (printed as 626Q in the methods, L626Q elsewhere); linker of 5 residues before the C-terminal 6-His tag; Mutation found in LBSL patients; not shown: His6, C-terminal, kept) IPEFSSFVVRTNTCGELRSSHLGQEVTLCGWIQYRRQNTFLVLRDFDGLVQVIIPQDESAASVKKILCEAPVESVVQVSGTVISRPAGQENPKMPTGEIEIKVKTAELLNACKKLPFEIKNFVKKTEALRLQYRYLDLRSFQMQYNLRLRSQMVMKMREYLCNLHGFVDIETPTLFKRTPGGAKEFLVPSREPGKFYSLPQSPQQFKQLLMVGGLDRYFQVARCYRDEGSRPDRQPEFTQIDIEMSFVDQTGIQSLIEGLLQYSWPNDKDPVVVPFPTMTFAEVLATYGTDKPDTRFGMKIIDISDVFRNTEIGFLQDALSKPHGTVKAICIPEGAKYLKRKDIESIRNFAADHFNQEILPVFLNANRNWNSPVANFIMESQRLELIRLMETQEEDVVLLTAGEHNKACSLLGKLRLECADLLETRGVVLRDPTLFSFLWVVDFPLFLPKEENPRELESAHHPFTAPHPSDIHLLYTEPKKARSQHYDLVLNGNEIGGGSIRIHNAELQRYILATLLKEDVKMLSHLLQALDYGAPPHGGIALGLDRLICLVTGSPSIRDVIAFPKSFRGHDLMSNTPDSVPPEEQKPYHIRVSKPTDSKAERAHVMYLE		2
